Values belong to the binder of their own block, whether it stands above or below them.
Experiments:
[1] = target: T1, rHuman ErbB2/Fc Chimera, CF (R&D Systems Cat#1129-ER) (human, UniProt P04626 23-652); test: ECL multispot (MSD), antigen spotted, Fab in solution; blank spot 356
T1 construct: Bought reagent

[2] = target: T2, rHuman EGF R/Fc Chimera, CF (R&D Systems Cat#344-ER) (human, UniProt P00533 25-645); test: as above
T2 construct: Bought reagent

[3] = target: T3, rHuman HGF R/c-MET/Fc Chimera, CF (R&D Systems Cat#358-MT/CF) (human, UniProt P08581 25-932); test: as above
T3 construct: Bought reagent; also called HGF R/Fc

[4] = target: T4, rHuman Notch-1/Fc Chimera, CF (R&D Systems Cat#3647-TK) (human, UniProt P46531 19-526); test: as above
T4 construct: Bought reagent

[5] = target: T5, rHuman CD44/Fc Chimera, CF (R&D Systems Cat#3660-CD) (human, UniProt P16070 21-220); test: as above
T5 construct: Bought reagent

[6] = target: T6, rHuman IGF-1 sR (insulin-like growth factor-1 soluble receptor), CF (R&D Systems Cat#391-GR) (human, UniProt P08069 31-932); test: as above
T6 construct: Bought soluble receptor

[7] = target: T7, rHuman P-Cadherin/Fc Chimera, CF (R&D Systems Cat#861-PC) (human, UniProt P22223 108-654); test: as above
T7 construct: Bought reagent

[8] = target: T8, rHuman Erythropoietin R/Fc Chimera, CF (R&D Systems Cat#963-ER) (human, UniProt P19235 25-250); test: as above
T8 construct: Bought reagent; also called EPO R; Epo R/Fc
T8 sequence (looked up): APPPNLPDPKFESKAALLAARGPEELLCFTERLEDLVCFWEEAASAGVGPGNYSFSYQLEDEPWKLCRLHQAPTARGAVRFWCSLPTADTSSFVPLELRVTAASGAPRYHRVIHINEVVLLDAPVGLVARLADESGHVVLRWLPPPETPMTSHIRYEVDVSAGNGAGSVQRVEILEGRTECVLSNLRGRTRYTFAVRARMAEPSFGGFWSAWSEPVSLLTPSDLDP

[9] = target: T9, Recombinant Human DLL4 (R&D Systems Cat#1506-D4/CF) (human, UniProt Q9NR61 27-524); test: as above
T9 construct: Bought recombinant protein; also called delta-like protein 4; rHuman DLL4

[10] = target: T1, rHuman ErbB2/Fc Chimera, CF (R&D …); test: ECL multispot (MSD), antigen spotted, Fab in solution; blank spot 198
[11] = target: T2, rHuman EGF R/Fc Chimera, CF (R&D …); test: as above
[12] = target: T3, rHuman HGF R/c-MET/Fc Chimera, CF (R&D …); test: as above
[13] = target: T4, rHuman Notch-1/Fc Chimera, CF (R&D …); test: as above
[14] = target: T5, rHuman CD44/Fc Chimera, CF (R&D Systems …); test: as above
[15] = target: T6, rHuman IGF-1 sR (insulin-like growth …); test: as above
[16] = target: T7, rHuman P-Cadherin/Fc Chimera, CF (R&D …); test: as above
[17] = target: T8, rHuman Erythropoietin R/Fc Chimera, CF …; test: as above
[18] = target: T9, Recombinant Human DLL4 (R&D Systems …); test: as above
[19] = target: T1, rHuman ErbB2/Fc Chimera, CF (R&D …); test: ECL multispot (MSD), antigen spotted, Fab in solution; blank spot 289
[20] = target: T2, rHuman EGF R/Fc Chimera, CF (R&D …); test: as above
[21] = target: T3, rHuman HGF R/c-MET/Fc Chimera, CF (R&D …); test: as above
[22] = target: T4, rHuman Notch-1/Fc Chimera, CF (R&D …); test: as above
[23] = target: T5, rHuman CD44/Fc Chimera, CF (R&D Systems …); test: as above
[24] = target: T6, rHuman IGF-1 sR (insulin-like growth …); test: as above
[25] = target: T7, rHuman P-Cadherin/Fc Chimera, CF (R&D …); test: as above
[26] = target: T8, rHuman Erythropoietin R/Fc Chimera, CF …; test: as above
[27] = target: T9, Recombinant Human DLL4 (R&D Systems …); test: as above
[28] = target: T1, rHuman ErbB2/Fc Chimera, CF (R&D …); test: ECL multispot (MSD), antigen spotted, Fab in solution; blank spot 272
[29] = target: T2, rHuman EGF R/Fc Chimera, CF (R&D …); test: as above
[30] = target: T3, rHuman HGF R/c-MET/Fc Chimera, CF (R&D …); test: as above
[31] = target: T4, rHuman Notch-1/Fc Chimera, CF (R&D …); test: as above
[32] = target: T5, rHuman CD44/Fc Chimera, CF (R&D Systems …); test: as above
[33] = target: T6, rHuman IGF-1 sR (insulin-like growth …); test: as above
[34] = target: T7, rHuman P-Cadherin/Fc Chimera, CF (R&D …); test: as above
[35] = target: T8, rHuman Erythropoietin R/Fc Chimera, CF …; test: as above
[36] = target: T9, Recombinant Human DLL4 (R&D Systems …); test: as above

T3 sequence (P08581 25-932, change not shown): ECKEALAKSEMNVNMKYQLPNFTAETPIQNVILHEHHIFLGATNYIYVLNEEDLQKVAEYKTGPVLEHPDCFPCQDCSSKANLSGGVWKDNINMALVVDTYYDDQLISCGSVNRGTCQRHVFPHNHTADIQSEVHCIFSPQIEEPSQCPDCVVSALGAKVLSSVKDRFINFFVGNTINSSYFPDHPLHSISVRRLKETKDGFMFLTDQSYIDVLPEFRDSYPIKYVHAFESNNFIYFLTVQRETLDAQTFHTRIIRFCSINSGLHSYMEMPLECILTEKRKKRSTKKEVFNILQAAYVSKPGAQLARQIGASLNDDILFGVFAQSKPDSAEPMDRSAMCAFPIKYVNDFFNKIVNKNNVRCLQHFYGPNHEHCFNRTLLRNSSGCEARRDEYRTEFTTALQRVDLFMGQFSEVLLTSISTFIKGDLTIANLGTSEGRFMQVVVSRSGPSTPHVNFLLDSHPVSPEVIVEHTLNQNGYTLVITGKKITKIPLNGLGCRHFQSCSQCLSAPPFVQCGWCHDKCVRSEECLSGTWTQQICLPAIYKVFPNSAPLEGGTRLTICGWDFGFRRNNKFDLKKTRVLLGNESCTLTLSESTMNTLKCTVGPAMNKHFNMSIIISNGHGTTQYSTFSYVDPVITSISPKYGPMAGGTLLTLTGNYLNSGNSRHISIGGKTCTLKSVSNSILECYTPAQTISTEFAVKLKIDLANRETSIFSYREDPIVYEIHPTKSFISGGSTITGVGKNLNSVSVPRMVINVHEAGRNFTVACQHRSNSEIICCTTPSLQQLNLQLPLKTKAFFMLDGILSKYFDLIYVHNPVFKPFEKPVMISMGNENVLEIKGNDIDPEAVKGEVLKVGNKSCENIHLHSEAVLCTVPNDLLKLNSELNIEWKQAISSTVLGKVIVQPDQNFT

ECL signal [1]: 251 | ECL signal [2]: 322 | ECL signal [3]: 414 | ECL signal [4]: 380 | ECL signal [5]: 390 | ECL signal [6]: 400 | ECL signal [7]: 454 | ECL signal [8]: 561 | ECL signal [9]: 184000
B1: Fab VH1-46_IGHD6-6*01_IGHJ1*01 S102A/S103P/S104F/H111F (APFF) & L6_IGKJ1*01 S30A (Fab, V domains shown)
VH: QVQLVQSGAEVKKPGASVKVSCKASGYTFTSYYMHWVRQAPGQGLEWMGIINPSGGSTSYAQKFQGRVTMTRDTSTSTVYMELSSLRSEDTAVYYCAREEYAPFSAEYFQFWGQGTLVTVSS
VL: EIVLTQSPATLSLSPGERATLSCRASQSVASYLAWYQQKPGQAPRLLIYDASNRATGIPARFSGSGSGTDFTLTISSLEPEDFAVYYCQQRSNWPPWTFGQGTKVEIKR
notes: Tested as Fab made in E. coli: VH joined to CH1 from Plasmid A (His6 and Flag tags), VL joined to kappa CL from Plasmid C; also called APFF / S30A

ECL signal [10]: 262 | ECL signal [11]: 353 | ECL signal [12]: 339 | ECL signal [13]: 243 | ECL signal [14]: 400 | ECL signal [15]: 342 | ECL signal [16]: 298 | ECL signal [17]: 423 | ECL signal [18]: 203000
B2: Fab VH1-46_IGHD6-6*01_IGHJ1*01 S102A/S103P/S104F/H111F (APFF) & L6_IGKJ1*01 S30Q (Fab, V domains shown)
VH: QVQLVQSGAEVKKPGASVKVSCKASGYTFTSYYMHWVRQAPGQGLEWMGIINPSGGSTSYAQKFQGRVTMTRDTSTSTVYMELSSLRSEDTAVYYCAREEYAPFSAEYFQFWGQGTLVTVSS
VL: EIVLTQSPATLSLSPGERATLSCRASQSVQSYLAWYQQKPGQAPRLLIYDASNRATGIPARFSGSGSGTDFTLTISSLEPEDFAVYYCQQRSNWPPWTFGQGTKVEIKR
notes: Tested as Fab made in E. coli: VH joined to CH1 from Plasmid A (His6 and Flag tags), VL joined to kappa CL from Plasmid C; also called APFF / S30Q

ECL signal [19]: 289 | ECL signal [20]: 398 | ECL signal [21]: 399 | ECL signal [22]: 372 | ECL signal [23]: 500 | ECL signal [24]: 471 | ECL signal [25]: 342 | ECL signal [26]: 542 | ECL signal [27]: 191000
B3: Fab VH1-46_IGHD6-6*01_IGHJ1*01 S102A/S103P/S104F/H111F (APFF) & L6_IGKJ1*01 S30W (Fab, V domains shown)
VH: QVQLVQSGAEVKKPGASVKVSCKASGYTFTSYYMHWVRQAPGQGLEWMGIINPSGGSTSYAQKFQGRVTMTRDTSTSTVYMELSSLRSEDTAVYYCAREEYAPFSAEYFQFWGQGTLVTVSS
VL: EIVLTQSPATLSLSPGERATLSCRASQSVWSYLAWYQQKPGQAPRLLIYDASNRATGIPARFSGSGSGTDFTLTISSLEPEDFAVYYCQQRSNWPPWTFGQGTKVEIKR
notes: Tested as Fab made in E. coli: VH joined to CH1 from Plasmid A (His6 and Flag tags), VL joined to kappa CL from Plasmid C; also called APFF / S30W

ECL signal [28]: 404 | ECL signal [29]: 387 | ECL signal [30]: 355 | ECL signal [31]: 382 | ECL signal [32]: 427 | ECL signal [33]: 393 | ECL signal [34]: 369 | ECL signal [35]: 485 | ECL signal [36]: 180000
B4: Fab VH1-46_IGHD6-6*01_IGHJ1*01 S102A/S103P/S104F/H111F (APFF) & L6_IGKJ1*01 S30G (Fab, V domains shown)
VH: QVQLVQSGAEVKKPGASVKVSCKASGYTFTSYYMHWVRQAPGQGLEWMGIINPSGGSTSYAQKFQGRVTMTRDTSTSTVYMELSSLRSEDTAVYYCAREEYAPFSAEYFQFWGQGTLVTVSS
VL: EIVLTQSPATLSLSPGERATLSCRASQSVGSYLAWYQQKPGQAPRLLIYDASNRATGIPARFSGSGSGTDFTLTISSLEPEDFAVYYCQQRSNWPPWTFGQGTKVEIKR
notes: Tested as Fab made in E. coli: VH joined to CH1 from Plasmid A (His6 and Flag tags), VL joined to kappa CL from Plasmid C; also called APFF / S30G
